# Test results reported in the Human Domainome abundance scans (Beltran et al. 2025).
# ± gives the uncertainty stated by the source.
# B1: V(D)J recombination-activating protein 2, residues 415 to 491; numbered along this chain, P55895 (parent)
# chain: YWITCCPTCDVDINTWVPFYSTELNKPAMIYCSHGDGHWVHAQCMDLAERTLIHLSAGSNKYYCNEHVEIARALHTP
# Variants of: B1
# Assay: abundance fitness (aPCA) (normalised: wild type 0, dead -1); higher = more abundant; growth selection in yeast, the domain comes from the species named
# Conditions: Homo sapiens
row,Variant,abundance fitness
1,YWITCCPTCNVDINTWVPFYSTELNKPAMIYCSHGDGHWVHAQCMDLAERTLIHLSAGSNKYYCNEHVEIARALHTP,0.033 ± 0.14
2,YWITCCPGCDVDINTWVPFYSTELNKPAMIYCSHGDGHWVHAQCMDLAERTLIHLSAGSNKYYCNEHVEIARALHTP,-0.277 ± 0.14
3,YWITCCPSCDVDINTWVPFYSTELNKPAMIYCSHGDGHWVHAQCMDLAERTLIHLSAGSNKYYCNEHVEIARALHTP,0.129 ± 0.24
4,YWITCCPTCDVDINTWVPFYSTELNKPAMIYCSHGDGHWVHAQCMDLAERTLIHLSAGSNKYYCNEHVEIARALHTA,-0.123 ± 0.21
5,YWITCCPTCDVDINTWVPFYSTELNKPAMIYCSHGDGHWVHAQCMDLAERTLIHLSAGSNKYMCNEHVEIARALHTP,-0.171 ± 0.096
6,YWITCCPTCDVDINTWVPFYSTELNKPAMIYCSHWDGHWVHAQCMDLAERTLIHLSAGSNKYYCNEHVEIARALHTP,-0.291 ± 0.14
7,YWITCCPTCDVDINTWVPFYSTELNKPAMIYCSHGDGHWVHAQCMDLAERTLIHVSAGSNKYYCNEHVEIARALHTP,-0.082 ± 0.071
8,YWITCCPTCDVDINTWVPFYSTELNKPAMIYCSHGDGHWVHAQCMDHAERTLIHLSAGSNKYYCNEHVEIARALHTP,-0.243 ± 0.094
9,YWITCCPTCDVDINTWVPFYSTELNKPAMIYCSHGDGHWVHAQCMDLAERTLNHLSAGSNKYYCNEHVEIARALHTP,0.244 ± 0.49
10,YWITCCPTCDVDINTWVPFYSTELNKPAMIYCSHGDGHWVHAQCMYLAERTLIHLSAGSNKYYCNEHVEIARALHTP,-0.113 ± 0.12
11,YWITCCPTCDVDINTWVPFYSTELNKPAMIYCSHGDGHWVHAQCMDLAERTLIHLSAGPNKYYCNEHVEIARALHTP,0.062 ± 0.091
12,YWITCCKTCDVDINTWVPFYSTELNKPAMIYCSHGDGHWVHAQCMDLAERTLIHLSAGSNKYYCNEHVEIARALHTP,0.084 ± 0.31
13,YWITCCETCDVDINTWVPFYSTELNKPAMIYCSHGDGHWVHAQCMDLAERTLIHLSAGSNKYYCNEHVEIARALHTP,0.09 ± 0.22
14,YWITCCPTCDVDINTWVPFYSTELNKPAMIYCSHGDGHWVHAQCMDLAERTLIHLSAGSCKYYCNEHVEIARALHTP,-0.209 ± 0.12
15,YWITCCPTCDVDINTWVPFYSTELNKPAMIYCSHGDGHWVHAQCMDLAERTLIHLSAGSIKYYCNEHVEIARALHTP,-0.045 ± 0.099
16,YWITCCPTCDVDGNTWVPFYSTELNKPAMIYCSHGDGHWVHAQCMDLAERTLIHLSAGSNKYYCNEHVEIARALHTP,-0.193 ± 0.14
17,SWITCCPTCDVDINTWVPFYSTELNKPAMIYCSHGDGHWVHAQCMDLAERTLIHLSAGSNKYYCNEHVEIARALHTP,-0.084 ± 0.053
18,YWVTCCPTCDVDINTWVPFYSTELNKPAMIYCSHGDGHWVHAQCMDLAERTLIHLSAGSNKYYCNEHVEIARALHTP,-0.053 ± 0.042
19,YWFTCCPTCDVDINTWVPFYSTELNKPAMIYCSHGDGHWVHAQCMDLAERTLIHLSAGSNKYYCNEHVEIARALHTP,0.044 ± 0.082
20,YWHTCCPTCDVDINTWVPFYSTELNKPAMIYCSHGDGHWVHAQCMDLAERTLIHLSAGSNKYYCNEHVEIARALHTP,-0.265 ± 0.078
21,YWITCCPTCDVDINTWVPFYSTELNKPAMIYCSHGDGHWVHAQCMDLAERTLIHLSAGSNKYYRNEHVEIARALHTP,-0.945 ± 0.11
22,YWITCCPTCDVDINTWVPFYSTELNKPAMIYCSHGDGHWVHAQCMDLAERTLIHLSAGSNKYYQNEHVEIARALHTP,-0.768 ± 0.23
23,YWITCCPTCDVDINTWVPFYSTELNKPAMIYCSHGDGHWVHAQCMDLAERTLIHLSAGSNKYYSNEHVEIARALHTP,-0.803 ± 0.12
24,YWITCCPTCDVDINTWVPFYSTELNKPAMIYCSHGDGHWVHAQCMDLAERTLIHLSAGSNKYYTNEHVEIARALHTP,-1.05 ± 0.4

row,Variant,abundance fitness
1,YWITCCPTCDVDINTWVPFYSTEMNKPAMIYCSHGDGHWVHAQCMDLAERTLIHLSAGSNKYYCNEHVEIARALHTP,-0.319 ± 0.21
2,YWITCCPTCDVDINTWVPFYSTEWNKPAMIYCSHGDGHWVHAQCMDLAERTLIHLSAGSNKYYCNEHVEIARALHTP,-0.305 ± 0.14
3,YHITCCPTCDVDINTWVPFYSTELNKPAMIYCSHGDGHWVHAQCMDLAERTLIHLSAGSNKYYCNEHVEIARALHTP,-0.11 ± 0.19
4,YWITCCPTCDVDINTWVPFYSTELNKPAMIFCSHGDGHWVHAQCMDLAERTLIHLSAGSNKYYCNEHVEIARALHTP,-0.061 ± 0.073
5,YWITCCPTCDVDINTWNPFYSTELNKPAMIYCSHGDGHWVHAQCMDLAERTLIHLSAGSNKYYCNEHVEIARALHTP,-0.687 ± 0.44
6,YWITCCPTCDVDINTWFPFYSTELNKPAMIYCSHGDGHWVHAQCMDLAERTLIHLSAGSNKYYCNEHVEIARALHTP,0.109 ± 0.23
7,YWITCCPTCDVDINTWVPFYSVELNKPAMIYCSHGDGHWVHAQCMDLAERTLIHLSAGSNKYYCNEHVEIARALHTP,-0.062 ± 0.13
8,YWITCCPTCDVDINTWVPFYSWELNKPAMIYCSHGDGHWVHAQCMDLAERTLIHLSAGSNKYYCNEHVEIARALHTP,-0.121 ± 0.13
9,YWITCCPTCDVDINTWVPFYSPELNKPAMIYCSHGDGHWVHAQCMDLAERTLIHLSAGSNKYYCNEHVEIARALHTP,-0.281 ± 0.24
10,YWITCCPTCDVDINTWVPFASTELNKPAMIYCSHGDGHWVHAQCMDLAERTLIHLSAGSNKYYCNEHVEIARALHTP,-0.539 ± 0.35
11,YWITCCPTCDVDINTWVPFYSTELNKPAMIYCSHGDGHWVHAQCMDLAERTLIHLSAGSNKYYCNEHVEIARAGHTP,0.092 ± 0.16
12,YWITCCPTCDVDINTWVPWYSTELNKPAMIYCSHGDGHWVHAQCMDLAERTLIHLSAGSNKYYCNEHVEIARALHTP,0.043 ± 0.19
13,YWITCCPTCDVDINTWVPAYSTELNKPAMIYCSHGDGHWVHAQCMDLAERTLIHLSAGSNKYYCNEHVEIARALHTP,-0.305 ± 0.13
14,YWITCCPTCDVDINTWVPFYSTELNKPAMIYCSHGDGHWVHSQCMDLAERTLIHLSAGSNKYYCNEHVEIARALHTP,-0.177 ± 0.077
15,YWITCCPTCDVDINTWVPFYSTELNKPAMIYCSHGDGHWVHAQCMDLAERTLIHLSWGSNKYYCNEHVEIARALHTP,-0.276 ± 0.11
16,YWITCCPTCDVDINTWVPFYSTGLNKPAMIYCSHGDGHWVHAQCMDLAERTLIHLSAGSNKYYCNEHVEIARALHTP,-0.372 ± 0.17
17,YWITCCPTCDVDINTWVPFYSTDLNKPAMIYCSHGDGHWVHAQCMDLAERTLIHLSAGSNKYYCNEHVEIARALHTP,0.122 ± 0.17
18,YWITCCPTCDVDINTWVPFYSTSLNKPAMIYCSHGDGHWVHAQCMDLAERTLIHLSAGSNKYYCNEHVEIARALHTP,-0.805 ± 0.23
19,YWITCCPTCDVDINTWVPFYSTELNKPAMIYCSHGDGHWVHAMCMDLAERTLIHLSAGSNKYYCNEHVEIARALHTP,-0.048 ± 0.19
20,YWITCCPTCDVDINTWVPFYSTELNKPAMIYCEHGDGHWVHAQCMDLAERTLIHLSAGSNKYYCNEHVEIARALHTP,0.036 ± 0.061
21,YWITCCPTCDVDINTWVPFYSTELNKPAMIYCSHGMGHWVHAQCMDLAERTLIHLSAGSNKYYCNEHVEIARALHTP,-0.107 ± 0.2
22,YWITCCPTCDVDINTWVPFYSTELNKPAMIYCSHGDGHWVHAQCMDLAERKLIHLSAGSNKYYCNEHVEIARALHTP,0.014 ± 0.12
23,YWITCCPTCDVDINTWVPFYSTELNKPAMIYCSHGDGHWVHAQCMDLAEGTLIHLSAGSNKYYCNEHVEIARALHTP,0.036 ± 0.051
24,YWITCCPTCDVDINTWVPFYSTELNKPAMIYCSHGDGHWVHAQCMDLAENTLIHLSAGSNKYYCNEHVEIARALHTP,-0.215 ± 0.14

row,Variant,abundance fitness
1,YWITCCPTCDVDINTWVPFYSTELNKPAMIYCSHGDGHWVHAQCMDLAEKTLIHLSAGSNKYYCNEHVEIARALHTP,0.015 ± 0.093
2,YWITCCPTCDVDINTWVPFYSTELNKPAMIYCSHGDGHWVHAQCMDLAERTLIHLSAGSNKYYCNEHVCIARALHTP,-0.355 ± 0.31
3,YWITCCPTCDVDINTWVPFYSTELNKPAMIYCSHGDGHWVHAQCMDLAERTLIHLFAGSNKYYCNEHVEIARALHTP,-0.052 ± 0.1
4,YWITCCPTCDVDINTWVPFYSTELNKPAMIYCSHGDGHWVHAQCMDLAERTLIHLSAGSNKYYCNEHLEIARALHTP,-0.08 ± 0.091
5,YWITCCPTCDVDINTWVPFYSTELNKPAMIYCSHGDGHWVHAQCMDLAERTLIHLSAGSNKYYCNEHVEIGRALHTP,-0.051 ± 0.05
6,YWITCCPTCDVDINTWVPFYSTELNKPAMIYCSHGDGHWVHAQCMDLAQRTLIHLSAGSNKYYCNEHVEIARALHTP,-0.019 ± 0.093
7,YWITCCPTCDVDINTWVPFYSTELNKPAMIYCSHGDGHWVHAQCMDLAERTLIHLSAGSNKYYCNEGVEIARALHTP,-0.116 ± 0.044
8,YWITCCPTCDVDINTWVPFYSTELNKPAMIYCSHGDGHWVHAQCMDLAERTLIHLSAGSNKYYCNEHVEIARVLHTP,-0.257 ± 0.071
9,YWITCCPTCDVDINTWVPFYSTELNKPAMIYASHGDGHWVHAQCMDLAERTLIHLSAGSNKYYCNEHVEIARALHTP,-1.15 ± 0.21
10,YWITCCPTCDVDINTWVPFYSTELNKPAMIYCSMGDGHWVHAQCMDLAERTLIHLSAGSNKYYCNEHVEIARALHTP,-0.046 ± 0.13
11,YWITCCPTCDVDINTWVPFYSTELNKPGMIYCSHGDGHWVHAQCMDLAERTLIHLSAGSNKYYCNEHVEIARALHTP,-0.775 ± 0.27
12,YWITCCPTCDVDINTWVPFYSTELNKPHMIYCSHGDGHWVHAQCMDLAERTLIHLSAGSNKYYCNEHVEIARALHTP,-0.23 ± 0.34
13,YWITCCPTCDVDINTWVPFYSTELNKPAMIYCSHGDGHIVHAQCMDLAERTLIHLSAGSNKYYCNEHVEIARALHTP,-0.278 ± 0.078
14,YWITCCPTCDVDINTWVPFYSTELNKSAMIYCSHGDGHWVHAQCMDLAERTLIHLSAGSNKYYCNEHVEIARALHTP,-0.958 ± 0.34
15,YWITCCPTCDVDINTWVPFYSTELNKPAMIYCSHGDGHWVHAQQMDLAERTLIHLSAGSNKYYCNEHVEIARALHTP,-0.969 ± 0.12
16,YWITCCPTCDVDINTWVPFYSTELNKPAMIYCSHGDGHWVHAQCMDLTERTLIHLSAGSNKYYCNEHVEIARALHTP,0.026 ± 0.09
17,YWITCCPTCDVDINTWVPFYSTELNKPAMIYCSHGDGHWVHAQCMDLYERTLIHLSAGSNKYYCNEHVEIARALHTP,-0.092 ± 0.13
18,YWITCCPTCDVDINTWVPFYSTELNKPAMIYCSHGDGHWVHAQCMDLAERTLIHLSAGSNKYYCNEHVECARALHTP,0.176 ± 0.13
19,YWITCCPTCDVDINTWVPFYSTELNKPAMIYCSHGDGHWVHAQCMDLAERTLIHLSAGSNKYYCNEHVEMARALHTP,0.02 ± 0.077
20,YWITCCPTCDVDINTWVPFYSTELNKPAMIYCSHGDGHWVHAQCMDLAERTLIFLSAGSNKYYCNEHVEIARALHTP,-0.602 ± 0.34
21,YWITCCPTCDVDINTWVPFYETELNKPAMIYCSHGDGHWVHAQCMDLAERTLIHLSAGSNKYYCNEHVEIARALHTP,0.119 ± 0.17
22,YWITCCPTCDVDINTWVPFYQTELNKPAMIYCSHGDGHWVHAQCMDLAERTLIHLSAGSNKYYCNEHVEIARALHTP,-0.325 ± 0.37
23,YWITCCPTCDVDINTWVPFYSTELNKPAMIYCSHGDGHWVHAQCMDLAERTLIHLSAGSNKYYCNVHVEIARALHTP,-0.105 ± 0.06
